B1: FAS immobilised for SPR (receptor, human, UniProt P25445 26-173, looked up)
chain: QVTDINSKGLELRKTVTTVETQNLEGLHHDGQFCHKPCPPGERKARDCTVNGDEPDCVPCQEGKEYTDKAHFSSKCRRCRLCDEGHGLEVEINCTRTQNTKCRCKPNFFCNSTVCEHCDPCTKCEHGIIKECTLTSNTKCKEEGSRSN
notes: FAS receptor, the protein immobilised in SPR; also called FAS receptor

Test [1] has as its target T1, FAS ligand (FASL) used as analyte in SPR (human, UniProt P48023 103-281).
T1 construct: FAS ligand (FASL), the protein flowed over immobilised FAS in SPR as positive control; also called rFASL; recombinant human FAS ligand
T1 sequence (looked up): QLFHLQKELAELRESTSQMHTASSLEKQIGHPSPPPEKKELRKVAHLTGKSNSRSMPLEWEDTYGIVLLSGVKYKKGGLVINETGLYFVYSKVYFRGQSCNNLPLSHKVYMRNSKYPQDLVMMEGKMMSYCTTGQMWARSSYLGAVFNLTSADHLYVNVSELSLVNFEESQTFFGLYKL
Nature of the test: SPR; FAS immobilised; TNFSF13 or FASL at various concentrations; sensorgrams fitted to a 1:1 kinetic binding model; n = 3 independent experiments. As to conditions: both partners purified.

For the test “FAS immobilised for SPR”, the target named is B1. The description is as above. As to conditions: both partners purified.

Turning to B1, in test [1], the affinity, expressed as Kd, was 4.09 nM. In other words, the single-digit nanomolar range.

B2: TNFSF13 used as analyte in SPR (ligand, human, UniProt O75888 105-250, looked up)
chain: AVLTQKQKKQHSVLHLVPINATSKDDSDVTEVMWQPALRRGRGLQAQGYGVRIQDAGVYLLYSQVLFQDVTFTMGQVVSREGQGRQETLFRCIRSMPSHPDRAYNSCYSAGVFHLHQGDILSVIIPRARAKLNLSPHGTFLGFVKL
notes: TNFSF13 (APRIL), the protein flowed over immobilised FAS in SPR; also called TNSF13; APRIL
In the case of B2, binding with FAS immobilised for SPR was put at a Kd of 60 nM.

For the origin of these results see article PMC13038214, “TNFSF13 insufficiency disrupts human colonic epithelial cell growth and associated B cell dynamics” (The Journal of Clinical Investigation, 2026).
